Where two headings read alike, the source gives them in different places.
T1: human TIGIT protein (human, UniProt Q495A1 22-141, limits assumed)
T1 construct: Recombinant protein (Genentech) used in ELISA screening and as SPR analyte; also called TIGIT antigen
T1 sequence: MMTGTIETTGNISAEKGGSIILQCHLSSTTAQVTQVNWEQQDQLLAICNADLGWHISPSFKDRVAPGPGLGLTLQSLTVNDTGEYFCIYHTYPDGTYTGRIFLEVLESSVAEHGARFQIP

T2: hTIGIT mutant H76A (human, UniProt Q495A1)
T2 sequence (TIGIT, looked up): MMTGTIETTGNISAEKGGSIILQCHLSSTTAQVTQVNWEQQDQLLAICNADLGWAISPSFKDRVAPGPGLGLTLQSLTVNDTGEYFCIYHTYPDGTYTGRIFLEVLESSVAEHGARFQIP


What was measured:
human TIGIT protein [1] = target: T1, human TIGIT protein; experiment: SPR, captured mAb
Procedure: (§1) Briefly, a series S CM5 biosensor chip was activated with N-ethyl-N′-(3-dimethylaminopropyl)-carbodiimide hydrochloride (EDC) and N-hydroxysuccinimide (NHS) reagents according to the supplier's (GE Healthcare Biosciences, Piscataway, N.J.) instructions, and a human antibody capture kit was applied to couple goat anti-human Fc IgGs in order to achieve approximately 10,000 response units (RU) on each flow cell, followed by blocking un-reacted groups with 1M ethanolamine.
(§2) (flow rate: 30 μl/min) with no regeneration between injections. The sensorgrams were recorded and evaluated by BIAcore™ T200 Evaluation Software (version 2.0) after subtraction of reference cell signal. Association rates (kₒₙ) and dissociation rates (koff) were calculated using a simple one-to-one Langmuir binding model. The equilibrium dissociation constant (KD) was calculated as the ratio koff/kₒₙ.
(§3) The first humanized versions, h6B2, L1H1, h10A5.L1H1, h7E7, L1H1, and h15C8.L1H1, which contain both rat CDRs and framework residues at Vernier positions, and the fully humanized versions, h6B2.L2H5, h10A5.L4H4, h7E7.L5H9, and h15C8.L5H9, which contain only rat CDRs were subject to BIAcore affinity measurement by comparison with original rat antibodies, rat6B2, rat10A5, rat7E7 and rat 15C8. For binding affinity determinations of TIGIT antibodies against human TIGIT, cynomolgus monkey TIGIT and human alanine-scanned TIGIT mutants by single-cycle kinetics, Surface Plasmon Resonance (SRP) measurement with a BIACORE™-T200 instrument was used, as described above.

[2] = target: T3, cynomolgus monkey (cyno) TIGIT protein (cynomolgus monkey, UniProt A0A7N9I9V4 89-209); experiment: SPR, captured mAb
Procedure: as §1, §2, §3

human TIGIT protein [3] = target: T1, human TIGIT protein; experiment: SPR, monovalent affinity
[4] = target: T3, cynomolgus monkey (cyno) TIGIT protein; experiment: SPR, monovalent affinity
hTIGIT mutant H76A [5] = target: T2, hTIGIT mutant H76A; experiment: SPR (BIACORE), N=2
hTIGIT mutant H76A [6] = target: T2, hTIGIT mutant H76A; experiment: SPR (BIACORE) KD normalized to WT, N=2
[7] = target: T4, cynomolgus TIGIT on CHO cells (cynomolgus monkey, UniProt A0A7N9I9V4 89-312); experiment: FACS blocking assay: labelled PVR-Fc (blocked ligand) on CHO cells expressing cyno TIGIT
T4 construct: whole, on cells; also called CHO-cyTIGIT; cyTIGIT
Procedure: These studies were further validated in CHO-TIGIT PVR blocking experiments in which TIGIT-expressing CHO cells were incubated with labeled PVR-Fc fusion protein in the presence of anti-TIGIT antibody or an human IgG1 control (FIG. 4A).

human TIGIT protein [8] = target: T1, human TIGIT protein; experiment: SPR, captured mAb; remark: listed apart in the source
Description: (§4) To prevent unwanted pyroglutamate formation for clones 4.1A4, 4.1 D3, and 7.4A3 (also referred to as 1A4, 1 D3, and 4A3, respectively) and to resolve the issue of unpaired cysteine residues for clones 4.1A4 and 7.4A3, the following optimized anti-TIGIT antibody variants were generated: 4.1A4.C96S.Q1E, 4.1A4.C96Y.Q1E, 4.1 D3.Q1E, 7.4A3.C96S.Q1E, and 7.4A3.C96Y.Q1E (also referred to as 1A4.C96S.Q1E, 1A4.C96Y.Q1E, 1 D3.Q1E, 4A3.C96S.Q1E, and 4A3.C96Y.Q1E, respectively). As described below in Table 2, the affinities of these five optimized variants for human and cynomolgus monkey (cyno) TIGIT were then determined by Surface Plasmon Resonance (SRP) (BIACORE™ analysis) and compared to that of their respective parental clones.
as §1, §2

[9] = target: T3, cynomolgus monkey (cyno) TIGIT protein; experiment: SPR, captured mAb; remark: listed apart in the source
Description: as §4, §1, §2

T3 sequence (A0A7N9I9V4 entry or part of it): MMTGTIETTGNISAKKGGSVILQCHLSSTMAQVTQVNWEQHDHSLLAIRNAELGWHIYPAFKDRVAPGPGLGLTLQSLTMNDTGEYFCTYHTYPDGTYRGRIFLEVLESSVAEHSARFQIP
T4 sequence (A0A7N9I9V4 entry or part of it): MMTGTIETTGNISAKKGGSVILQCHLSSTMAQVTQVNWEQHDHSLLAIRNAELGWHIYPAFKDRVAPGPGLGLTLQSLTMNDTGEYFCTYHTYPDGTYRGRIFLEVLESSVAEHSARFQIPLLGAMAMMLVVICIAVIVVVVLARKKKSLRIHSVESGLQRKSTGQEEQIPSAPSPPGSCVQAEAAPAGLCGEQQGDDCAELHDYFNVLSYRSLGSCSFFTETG

Binder	Kd (human TIGIT protein [1])	koff (human TIGIT protein [1])	kon (human TIGIT protein [1])	Kd [2]	koff [2]	kon [2]	Kd (human TIGIT protein [3])	Kd [4]	other results
h15C8.L1H1 (antibody, V domains shown, First humanized version; FR/HVR pieces in order; also called h1.15C8.L1H1) VH: EVQLVQSGAEVKKPGASVKVSCKASGYTFTEHSIYWLRQAPGQRLEIIGRIDPKNGRTYFVDKFKNRATLTTDTSASTAYMELSSLRSEDTAVYFCARIDGFYFDFWGQGTLVTVSS VL: DIQLTQSPSFLSASVGDRVTITCKGSQNVNKYLVWYQQKPGKAPKLLIYSTDNLQSGIPSRFSGSGSGTEYTLTISSLQPEDFATYFCYQYNNGFTFGQGTKVEIK	0.39 nM	0.000357 s⁻¹	922000 M⁻¹ s⁻¹	0.94 nM	0.000464 s⁻¹	493000 M⁻¹ s⁻¹	0.58 nM	1.39 nM	
h7E7.L5aH9a (antibody, V domains shown, Final humanized 7E7; keeps rat VH I47 and VL Y71; FR/HVR pieces) VH: EVQLVQSGAEVKKPGASVKVSCKASGYTFTEYSIYWVRQAPGQRLEIMGRIDPKNGRTYYVDKFKNRVTITRDTSASTAYMELSSLRSEDTAVYYCARIYGFYFDFWGQGTLVTVSS VL: DIQLTQSPSFLSASVGDRVTITCKGSQNVNKYLVWYQQKPGKAPKLLIYNTDNLQSGVPSRFSGSGSGTEYTLTISSLQPEDFATYYCYQYNNGFTFGQGTKVEIK				0.31 nM	0.000182 s⁻¹	591000 M⁻¹ s⁻¹			Kd (hTIGIT mutant H76A [5]): 1 nM; Binding affinity drop vs. WT (hTIGIT mutant H76A [6]): 2.5 fold
h7E7.L1H1 (antibody, V domains shown, First humanized version; FR/HVR pieces in order; also called h1.7E7.L1H1) VH: EVQLVQSGAEVKKPGASVKVSCKASGYTFTEYSIYWVRQAPGQRLEIIGRIDPKNGRTYYVDKFKNRATLTADTSASTAYMELSSLRSEDTAVYFCTRIYGFYFDFWGQGTLVTVSS VL: DIQLTQSPSFLSASVGDRVTITCKGSQNVNKYLVWYQQKPGKAPKLLIYNTDNLQSGIPSRFSGSGSGTEYTLTISSLQPEDFATYFCYQYNNGFTFGQGTKVEIK	0.23 nM	0.000476 s⁻¹	2.06e+06 M⁻¹ s⁻¹	0.36 nM	0.000152 s⁻¹	418000 M⁻¹ s⁻¹	0.33 nM	0.51 nM	
h6B2.L1H1 (antibody, V domains shown, Humanized; FR/HVR pieces in order; also called h1.6B2.L1H1) VH: EVTLKESGPALVKPTQTLTLTCTFSGFSLSTYGMGVSWIRQPPGKALEWLASIWWNGNTYYNPSLKSRLTVTKDASKNQAVLTMTNMDPVDTATYYCAHTGGAVITWFAYWGQGTLVTVSS VL: DIQMTQSPSSLSASVGDRVTITCKASQSVGKNIAWYQQKPGKSPKLLIYYASNRYTGVPSRFSGSGSGTDFTFTISSLQPEDIATYYCQHIYNSPYPFGQGTKVEIK	0.54 nM	0.00253 s⁻¹	4.67e+06 M⁻¹ s⁻¹	0.96 nM	0.00118 s⁻¹	1.23e+06 M⁻¹ s⁻¹	0.54 nM	0.96 nM	
h10A5.L4H4 (antibody, V domains shown, Fully humanized version; FR/HVR pieces in order) VH: EVTLKESGPALVKPTQTLTLTCTFSGFSLTTYGMGVSWIRQPPGKALEWLASIWWNGNTYYNPSLRSRLTITKDTSKNQVVLTMTNMDPVDTATYYCAHTGGAVITWFAYWGQGTLVTVSS VL: EIVMTQSPATLSVSPGERATLSCKASQSVGKNIAWYQQKPGQAPRLLIYYASNRYTGIPARFSGSGSGTEFTLTISSLQSEDFAVYYCQHIYNSPYPFGQGTKVEIK	0.44 nM	0.00227 s⁻¹	5.21e+06 M⁻¹ s⁻¹	0.85 nM	0.00129 s⁻¹	1.52e+06 M⁻¹ s⁻¹			
h10A5.L1H1 (antibody, V domains shown, Humanized; FR/HVR pieces in order; also called h1.10A5.L1H1) VH: EVTLKESGPALVKPTQTLTLTCTFSGFSLTTYGMGVSWIRQPPGKALEWLASIWWNGNTYYNPSLRSRLTVTKDTSKNQAVLTMTNMDPVDTATYYCAHTGGAVITWFAYWGQGTLVTVSS VL: EIVMTQSPATLSVSPGERATLSCKASQSVGKNIAWYQQKPGQSPRLLIYYASNRYTGVPARFSGSGSGTEFTLTISSLQSEDFAVYYCQHIYNSPYPFGQGTKVEIK	0.52 nM	0.00238 s⁻¹	4.57e+06 M⁻¹ s⁻¹	0.86 nM	0.00127 s⁻¹	1.47e+06 M⁻¹ s⁻¹	0.52 nM	0.86 nM	
4.1A4.Q1E.C96 (antibody, V domains shown, built from its name as 4.1A4 with Q1E in VH and C96 kept in VL) VH: EVQLVQSGSELKKPGASVKVSCKASGYTLTNYPMNWVRQAPGRGLEWMGWINTNTGSPAYAQDFTERFVFSLDTSVTTAYLQISSLKAEDTAVYYCARTAITSVYHFDYWGQGTLVTVSS VL: DIQLTQSPSFLSASVGDRVTITCRASQGISSYLAWYQQKPGKAPRVLIYGATTLQSGVPSRFSGSESGTEFTLTISSLQPEDLATYYCQKLNSHPCSFGQGTKVEIK							3.6 nM	2.4 nM	
4.1A4.C96Y.Q1E (antibody, V domains shown, FR/HVR pieces in order; also called 4.1A4.Q1E.C96Y) VH: EVQLVQSGSELKKPGASVKVSCKASGYTLTNYPMNWVRQAPGRGLEWMGWINTNTGSPAYAQDFTERFVFSLDTSVTTAYLQISSLKAEDTAVYYCARTAITSVYHFDYWGQGTLVTVSS VL: DIQLTQSPSFLSASVGDRVTITCRASQGISSYLAWYQQKPGKAPRVLIYGATTLQSGVPSRFSGSESGTEFTLTISSLQPEDLATYYCQKLNSHPYSFGQGTKVEIK								> 100 nM	binding result [7]: no binding (tested: about 20 nM)
7.4A3.Q1E.C96 (antibody, V domains shown, built from its name as 7.4A3 with Q1E in VH and C96 kept in VL) VH: EVQLVQSGSDLKKPGASVRVSCKASGYTFTSYPMNWVRQAPGHGLEWMGWINTNTGNPTYVQGFTGRFVFSLDTSVNTAYLQISSLKAEDTAVYFCARTGGHTYDSYAFDVWGQGTMVTVSS VL: DIQLTQSPTFLSASVGDRVTITCRASQVISSSLAWYQQNPGKAPKLLIYAASTLQSGVPSRFSGSGSGTEFTLTISSLQPEDFVTYYCQHLHGYPCNFGQGTKVEIK							3.45 nM	2.09 nM	
7.4A3.C96Y.Q1E (antibody, V domains shown, No entry is tied to this variant by name; built from 7.4A3 with the two named changes (Q1E in the heavy chain, C96Y in HVR-L3); also called 7.4A3.Q1E.C96Y) VH: EVQLVQSGSDLKKPGASVRVSCKASGYTFTSYPMNWVRQAPGHGLEWMGWINTNTGNPTYVQGFTGRFVFSLDTSVNTAYLQISSLKAEDTAVYFCARTGGHTYDSYAFDVWGQGTMVTVSS VL: DIQLTQSPTFLSASVGDRVTITCRASQVISSSLAWYQQNPGKAPKLLIYAASTLQSGVPSRFSGSGSGTEFTLTISSLQPEDFVTYYCQHLHGYPYNFGQGTKVEIK							98.1 nM	35.5 nM	Kd (human TIGIT protein [8]): 98 nM; koff (human TIGIT protein [8]): 0.0365 s⁻¹; kon (human TIGIT protein [8]): 372000 M⁻¹ s⁻¹; Kd [9]: 35.6 nM; koff [9]: 0.014 s⁻¹; kon [9]: 395000 M⁻¹ s⁻¹

Source: patent US20220064286A1 (Genentech, published 2022)
